This note sets out measurements from US20100249383A1, “Novel Ligand Involved In The Transmigration Of Leukocytes Across the Endothelium and Uses Therefor” (The Regents of The University of California and The Burnham …, priority 2001, published 2010).

Values joined by “and” are separate entries in the source; they are usually repeats but may differ in a detail not shown here. Equal entries are not always repeated.

Assay [1] deals with 0.3 M asialo-COO^− glycopeptide-BSA neoglycoproteins. The experiment in a line: ELISA binding of purified proteins to immobilized carboxylated bovine lung glycans. The conditions noted are these: FIG. 19 or data not shown. The protocol: In additional ELISA experiments, 96-well plates were coated with 0.3 M asialo-COO^− glycopeptide-BSA neoglycoproteins (250 ng/well) for 4 h at 37° C. (control wells had BSA alone) and blocked with 3% BSA in PBS overnight. The wells were then incubated with purified human annexin I or S100A8/A9 complexes (as appropriate), in 10 mM HUES buffer pH 7.5 containing 150 mM NaCl, 5 mM KCl, 1.2 mM MgCl2 and 1.3 mM CaCl2, in the absence or presence of varying concentrations of 0.3 M asialo-COO^− glycopeptides or 0.3 M asialo-CONHMe-glycopeptides for 2 h at room temperature. This was followed by incubation with anti-bovine annexin I antibody or anti-human S100A8 or anti-S100A9 for 2 h at room temperature. Wells were then washed and incubated with alkaline phosphatase conjugated goat anti-mouse IgG, followed by development with p-nitrophenyl phosphate substrate.
In this Example, experiments conducted to assess amphoterin binding to COO^− glycopeptide coated plates was assayed as described earlier for annexin I and S100 proteins. In addition, bound protein was detected using anti-amphoterin. mAbGB3.1 binding to sRAGE was assessed by first coating sRAGE on microtiter wells for 4 h at 37° C. After blocking with 3% BSA in PBS overnight, wells were incubated with mAbGB3.1 in the presence and absence of COO^−or CONHMe-glycopeptide and developed as described above.
On the technique in general: An ELISA detects its analyte on a solid surface through an enzyme-linked reagent.

The subject of assay [2] is [2-^3H]mannose-labeled CPAE glycoproteins. The experiment in a line: Precipitation of mannose-labeled glycoproteins and cross-binding. Also on record: species or system bovine. The protocol: Calf pulmonary artery endothelial cells (CPAE) cells were labeled with [2-^3H] mannose at 20 μCi/ml for 24 h in alpha MEM containing 10% fetal bovine serum. Cells were harvested by trypsinization, washed thrice in PBS, and lysed in PBS containing protease inhibitors and 0.5% NP40. Protein-rich lysates were prepared by ultrafiltration on YM10 membranes. Purified S100A8/A9 or annexin I proteins were immobilized on Affigel-10, and mixed with the labeled glycoproteins from CPAE cells in 10 mM HEPES buffer pH 7.5 containing 150 mM NaCl, 5 mM KCl, 1.2 mM MgCl2 and 1.3 mM CaCl2 after preclearing the lysates with BSA-Affigel 10. For immunoprecipitations using mAbGB3.1, lysates were precleared with normal mouse IgG-protein G beads and then incubated with Protein G coupled to mAbGB3.1 IgG in PBS. After overnight incubation at 4° C., the individual pellets were washed free of all unbound label until no more counts appeared in the washes, and the radioactivity associated with the pellets was measured.
For cross-binding, label associated with each pellet was first eluted using high salt (5 M MgCl2, which eluted >70% bound label). The eluates were repeatedly desalted on YM10 membranes and resuspended in the respective buffers. Label eluted from mAbGB3.1 gels was mixed with immobilized S100A8/A9 or annexin I and vice versa. Again, after overnight incubation at 4° C., the individual pellets were washed free of all unbound label and counted. […] In comparison, immobilized annexin I precipitated only about 2-3% of mannose labeled glycoproteins from endothelial cells (data not shown).

Assay [3] relates to HUVECs. As to the kind of experiment: Surface binding of iodinated S100A8/A9 to endothelial cells. Details: species or system human. The protocol: Human umbilical vein endothelial cells (HUVECs) were grown in Endothelial Cell growth Medium (Cell Applications) at 37° C. in 5% CO2. Cell staining and Western blotting were performed to confirm expression of mAbGB3.1 antigens. HUVECS at passages 3-4 were used in the binding assays. Purified proteins were radioiodinated using Na^125I and Iodo-Beads Iodinating Reagent as per the manufacturer's protocols. Unbound label was removed on a Sephadex G25 column, followed by concentration of the void volume fractions using Centricon10 concentrators.
Cells grown to confluence in 12 well plates and activated with 1 μM PAF for 4 hr. Activated and unactivated cells were washed with cold HBSS and then incubated with 4 nM to 80 nM ^125I-S100A8/A9 in 1 ml of HBSS, or 20 nM labeled complex in the absence and presence of modulators at 4° C. for 2 h. The reaction was stopped by rapid removal of unbound label, and the cells were washed thrice with cold HBSS. They were solubilized in 1 M NaOH followed by addition of an equal volume of 1 M HCl, and the radioactivity associated with the lysates was measured using a gamma counter. […] Panels 2 and 3 show the results for HUVECs incubated with 20 nM labeled complex in the absence or presence of modulators, in 1 ml of HBSS at 4° C. for 2 hours.

Assay [4] addresses cell surface binding sites on human umbilical vein endothelial cells (HUVECs). The experiment in a line: binding of 125I-S100A8/A9 to unactivated HUVECs (data not shown).
For assay [5], the target named is [2-3H]mannose-labeled CPAE glycoproteins eluted from mAbGB3.1. As to the kind of experiment: rebinding to immobilized S100A8/A9 of label eluted from mAbGB3.1 (1,961 cpm added).
Assay [6] shares this target. The experiment in a line: rebinding to immobilized S100A8/A9 of label eluted from mAbGB3.1 (4,951 cpm added).
Assay [7] deals with cell surface binding sites on human umbilical vein endothelial cells (HUVECs). The experiment in a line: competition of 20 nM 125I-S100A8/A9 on PAF-activated HUVECs by unlabeled S100A8/A9.
In assay [8] the target is [2-3H]mannose-labeled CPAE glycoproteins. As to the kind of experiment: precipitation of [2-3H]mannose-labeled CPAE glycoproteins by S100A8/A9 on Affigel-10 (10,286 cpm added).
Assay [9] shares this target. As to the kind of experiment: precipitation of [2-3H]mannose-labeled CPAE glycoproteins by S100A8/A9 on Affigel-10 (20,386 cpm added).
The target is the same in assay [10]. As to the kind of experiment: precipitation of [2-3H]mannose-labeled CPAE glycoproteins by annexin I on Affigel-10 (data not shown).
In assay [11] the target is T1, RAGE (Bos taurus, UniProt Q28173).
T1 construct: from tissue; host or cells: bovine lung (inferred); amphoterin from baculovirus-infected insect cells
T1 sequence (Q28173 23-416): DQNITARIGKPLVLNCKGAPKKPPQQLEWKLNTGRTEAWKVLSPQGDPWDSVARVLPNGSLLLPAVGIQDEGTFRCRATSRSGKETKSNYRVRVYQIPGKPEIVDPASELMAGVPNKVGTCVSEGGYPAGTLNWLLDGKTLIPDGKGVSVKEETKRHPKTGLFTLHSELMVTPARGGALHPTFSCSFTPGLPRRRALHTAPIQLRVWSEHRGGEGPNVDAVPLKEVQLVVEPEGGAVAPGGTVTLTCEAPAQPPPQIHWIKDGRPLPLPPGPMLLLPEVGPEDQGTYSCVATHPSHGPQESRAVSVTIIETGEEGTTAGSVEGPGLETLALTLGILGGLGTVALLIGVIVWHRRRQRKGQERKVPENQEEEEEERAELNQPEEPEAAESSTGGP
As to the kind of experiment: Binding assays using ^125I amphoterin on immobilized RAGE. Also on record: species or system bovine. The protocol: Amphoterin was radioiodinated using Na ^125I and Iodo-Beads Iodinating Reagent (Pierce) to a specific activity of 5×10^3 cpm/ng protein. Saturation binding experiments were done by a slight modification of the method of Hori et al (Hori at al., J. Biol. Chem., 270:25752-61 [1995]). Briefly, purified RAGE was immobilized on microliter wells and the wells blocked with 3% BSA. Wells were incubated at 4° C. overnight with increasing concentrations of ^125I amphoterin in HBSS containing 0.1% BSA in the presence or absence of desialylated carboxylate-enriched (COO^−) or CONHMe bovine lung glycopeptides, or 20 μg/ml mAbGB3.1 or an unrelated anti-carbohydrate monoclonal antibody, or 100 fold excess of unlabeled amphoterin. Binding was also tested on RAGE deglycosylated by PNGase F under non-denaturing conditions. Wells were washed, bound amphoterin was eluted with 2 M NaCl, and radioactivity was measured using a gamma counter. Non-linear regression analysis was done using the GraphPad Prism program.

As to “S100A8/A9: heteromeric S100A8/S100A9 complex purified from human neutrophil cytosol”, the “binding to immobilized carboxylated vs neutralized glycans” value in assay [1] is given as “same specificity of binding”. Moreover, the “% Bound Radioactivity (mean ± SD)” value in assay [2] (primary binding) was 9% and 8.7 ± 0.5%; in assay [2] (primary binding to mAbGB3.1, eluted label rebinding to S100A8/A9) it was 31.5 ± 0.2%; in [2] (primary binding to mAbGB3.1, eluted label rebinding to S100A8/A9, listed as S100A8/A9 complex), “about one-third”; in assay [2] (primary binding, listed as S100A8/A9 complex) it was 9%. In assay [3] (unlabeled ligand, 20 nM labeled complex, PAF-activated HUVECs, FIG. 20 Panel B, read-out: half maximal competition of specific binding of ^125I-S100A8/A9), the IC50 is about 500 nM.

Regarding “^125I-S100A8/A9: purified S100A8/A9 radioiodinated using Na^125I”, the “binding on PAF-activated HUVECs” value in assay [3] (4 nM to 80 nM, 4° C. 2 h, FIG. 20 Panel A) was “dose-dependent and saturable binding”. The “binding to unactivated cells, less than to PAF-activated cells” value in [3] (data not shown) was found to be 2 fold.

B1: purified human S100A8/A9 complex from peripheral blood neutrophils (ligand)
chain 1: MLTELEKALNSIIDVYHKYSLIKGNFHAVYRDDLKKLLETECPQYIRKKGADVWFKELDINTDGAVNFQEFLILVIKMGVAAHKKSHEESHKE
chain 2: TCKMSQLERNIETIINTFHQYSVKLGHPDTLNQGEFKELVRKDLQNFLKKENKNEKVIEHIMEDLDTNADKQLSFEEFIMLMARLTWASHEKMHEGDEGPGHHHKPGLGEGTP
Turning to B1, the fold less binding to unactivated than to PAF-activated cells in [4] is 2 fold. The cpm bound to gel in assay [5] was 615 cpm; in assay [6], 1570 cpm; in assay [8], 928 cpm; in assay [9] it was 1700 cpm. Also, the IC50 in assay [7] came out at 500 nM.

B2: recombinant full-length human annexin I (E. coli BL21(DE3), pET23b) (protein)
chain: MAMVSEFLKQAWFIENEEQEYVQTVKSSKGGPGSAVSPYPTFNPSSDVAALHKAIMVKGVDEATIIDILTKRNNAQRQQIKAAYLQETGKPLDETLKKALTGHLEEVVLALLKTPAQFDADELRAAMKGLGTDEDTLIEILASRTNKEIRDINRVYREELKRDLAKDITSDTSGDFRNALLSLAKGDRSEDFGVNEDLADSDARALYEAGERRKGTDVNVFNTILTTRSYPQLRRVFQKYTKYSKHDMNKVLDLELKGDIEKCLTAIVKCATSKPAFFAEKLHQAMKGVGTRHKALIRIMVSRSEIDMNDIKAFYQKMYGISLCQAILDETKGDYEKILVALCGGN
On to B2, for which, in assay [10], the % of mannose labeled glycoproteins precipitated was 2 to 3%.

B3: amphoterin: baculovirus expressed rat amphoterin, neurite growth-promoting protein, ligand of RAGE (protein)
chain: GKGDPKKPRGKMSSYAFFVQTCREEHKKKHPDASVNFSEFSKKCSERWKTMSAKEKGKFEDMAKADKARYEREMKTYIPPKGETKKKFKDPNAPKRPPSAFFLFCSEYRPKIKGEHPGLSIGDVAKKLGEMWNNTAADDKQPYEKKAAKLKEKYEKDIAAYRAKGKPDAAKKGVVKAEKSKKKKEEEDDEEDEEDEEEEEEEEDEDEEEDDDDE
Turning to B3, the “binding to immobilized carboxylated vs neutralized glycans” value in assay [1] was “carboxylate dependent manner”. The Bmax entry in assay [11] (in presence of soluble COO^− glycopeptides) is on record as “approximately 34.7±3.7 fmole/well”; in assay [11] (native purified RAGE), “approximately 52.7±4.3 fmole/well”.
